Laboratory results taken from the supplement of paper PMC6757056.
± gives the standard deviation of the averaged measurements.

B1: library; a variant is named by its letters at N, in order (parent)
chain: GCUGUCACCGGUGUAUUACCCUAGUGGUCGACCGGUCUGAUGAGUCUNNNNNNAGACGAAACAGC

Tests used:
hypoxanthine [1] = variants of: B1; experiment: FACS-Seq fitted mean relative fluorescence mCherry/BFP without ligand (log10 relative fluorescence); ligand: hypoxanthine (xanthine aptamer); higher = higher reporter protein expression; conditions: HEK293T, ligand present: no
How it was run: (§1)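 Fluorescence figures are normalized fitted normal means of sequenced bin counts. Enriched, lentivirally transduced HEK293T libraries with a ribozyme-switch mCherry reporter and EF1α-BFP were held 48 h with or without ligand, then sorted into 6 mCherry/BFP bins. PCR-amplified, barcoded genomic DNA from each bin was sequenced on MiSeq. Means of log10(mCherry/BFP) were scaled to five spiked-in control ribozymes.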

hypoxanthine [2] = variants of: B1; experiment: normalized RNA/DNA level with ligand (relative to sTRSVctl = 100) (log10 (% of sTRSVctl)); ligand: hypoxanthine (xanthine aptamer); higher = less ribozyme self-cleavage, higher mRNA level; conditions: ligand concentration (+) RNA-Seq: 5 mM, HEK293T, reporter: mCherry (pCS4076), ligand present: yes
Description: (§2)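 Hammerhead (sTRSV) ribozyme switch libraries with a ligand aptamer grafted on stem I and a randomized N4-6 loop II, cloned into the 3' UTR of mCherry and transiently transfected into HEK293T cells; RNA-Seq 72 h post transfection with ligand added 1 h before transfection; RNA read count / plasmid DNA read count normalized to the non-cleaving sTRSVctl (x100), log10; sequences with >100 DNA reads. FACS-Seq: lentiviral library sorted into 6 bins after 48 h ligand, log-normal fit mean of mCherry/BFP scaled to controls. Printed sequences are partial switch sequences.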

hypoxanthine [3] = variants of: B1; experiment: normalized RNA/DNA level without ligand (relative to sTRSVctl = 100) (log10 (% of sTRSVctl)); ligand: hypoxanthine (xanthine aptamer); higher = less ribozyme self-cleavage, higher mRNA level; conditions: HEK293T, reporter: mCherry (pCS4076), ligand present: no
Description: as §2

hypoxanthine [4] = variants of: B1; experiment: FACS-Seq fitted mean relative fluorescence mCherry/BFP with ligand (log10 relative fluorescence); ligand: hypoxanthine (xanthine aptamer); ligand concentration (+) FACS-Seq: 5 mM; higher = higher reporter protein expression; conditions: HEK293T, ligand present: yes
How it was run: as §1

| Variant | FACS-Seq fitted mean (log10) (hypoxanthine [1]) | normalized RNA/DNA level with ligand (log10) (hypoxanthine [2]) | normalized RNA/DNA level without ligand (log10) (hypoxanthine [3]) | FACS-Seq fitted mean (log10) (hypoxanthine [4]) |
| --- | --- | --- | --- | --- |
| CCGGGC | 0.124 ± 0.013 | 1.99 ± 0.074 | 1.88 ± 0.019 | 0.382 ± 0.068 |
| CCGGGA | 0.607 ± 0.06 | 1.97 ± 0.022 | 1.82 ± 0.037 | 0.674 ± 0.071 |
| ACUAAC | -0.0807 ± 0.092 | 1.95 ± 0.057 | 1.8 ± 0.041 | 0.0498 ± 0.032 |
| ACUAAG | -0.0198 ± 0.018 | 1.833 ± 0.017 | 1.5247 ± 0.0014 | 0.236 ± 0.15 |
| ACUAAU | 0.475 ± 0.018 | 1.92 ± 0.046 | 1.67 ± 0.058 | 0.628 ± 0.041 |
| ACUAAA | 0.324 ± 0.083 | 1.897 ± 0.0002 | 1.76 ± 0.018 | 0.54 ± 0.027 |
| GCUAAG | -0.184 ± 0.019 | 1.838 ± 0.0086 | 1.421 ± 0.0074 | 0.199 ± 0.03 |
| GCUAAC | 0.101 ± 0.032 | 1.93 ± 0.036 | 1.66 ± 0.036 | -0.141 ± 0.025 |
| GCUAAU | 0.665 ± 0.11 | 1.93 ± 0.052 | 1.788 ± 0.012 | 0.7639 ± 0.0062 |
| CCUCGA | 0.268 ± 0.026 | 2 ± 0.011 | 1.87 ± 0.044 | 0.314 ± 0.059 |
| GCUAUG | 0.086 ± 0.067 | 1.86 ± 0.025 | 1.36 ± 0.065 | 0.318 ± 0.022 |
| GCUAUU | 0.263 ± 0.011 | 1.927 ± 0.011 | 1.89 ± 0.004 | 0.412 ± 0.06 |
| ACUGGU | 0.0934 ± 0.044 | 1.926 ± 0.0036 | 1.65 ± 0.06 | 0.1 ± 0.11 |
| ACUGGA | 0.309 ± 0.0042 | 1.952 ± 0.017 | 1.71 ± 0.03 | 0.587 ± 0.064 |
| ACGGUA | 0.318 ± 0.0024 | 1.85 ± 0.056 | 1.57 ± 0.064 | 0.5989 ± 0.004 |
| ACUCCG | 0.262 ± 0.039 | 1.895 ± 0.0092 | 1.44 ± 0.026 | 0.615 ± 0.02 |
| ACUCCC | -0.354 ± 0.031 | 1.96 ± 0.06 | 1.924 ± 0.019 | -0.746 ± 0.075 |
| UCUGAA | 0.338 ± 0.025 | 1.951 ± 0.0066 | 1.68 ± 0.04 | 0.512 ± 0.022 |

| Variant | FACS-Seq fitted mean (log10) (hypoxanthine [1]) | normalized RNA/DNA level with ligand (log10) (hypoxanthine [2]) | normalized RNA/DNA level without ligand (log10) (hypoxanthine [3]) | FACS-Seq fitted mean (log10) (hypoxanthine [4]) |
| --- | --- | --- | --- | --- |
| UCGGCG | 0.493 ± 0.023 | 1.982 ± 0.0021 | 1.8 ± 0.03 | 0.666 ± 0.025 |
| ACUGAG | 0.241 ± 0.019 | 1.818 ± 0.015 | 1.37 ± 0.04 | 0.673 ± 0.028 |
| ACUGAA | 0.038 ± 0.062 | 1.92 ± 0.079 | 1.737 ± 0.0053 | 0.0938 ± 0.16 |
| ACUGAC | 0.249 ± 0.034 | 1.95 ± 0.11 | 1.835 ± 0.014 | 0.347 ± 0.1 |
| ACUGAU | 0.247 ± 0.08 | 1.92 ± 0.053 | 1.67 ± 0.026 | 0.431 ± 0.058 |
| GCUGCG | 0.192 ± 0.0063 | 1.92 ± 0.057 | 1.6 ± 0.023 | 0.503 ± 0.0077 |
| CCUACA | 0.617 ± 0.024 | 1.975 ± 0.01 | 1.9 ± 0.015 | 0.603 ± 0.01 |
| GCUGGG | 0.121 ± 0.13 | 1.94 ± 0.0053 | 1.55 ± 0.083 | 0.547 ± 0.091 |
| GCUGGC | 0.495 ± 0.075 | 1.85 ± 0.12 | 1.78 ± 0.038 | 0.468 ± 0.018 |
| GCUUAG | 0.401 ± 0.077 | 1.83 ± 0.05 | 1.4 ± 0.025 | 0.791 ± 0.096 |
| GCUUAA | 0.221 ± 0.11 | 1.92 ± 0.047 | 1.79 ± 0.036 | 0.508 ± 0.0091 |
| AGAAAU | 0.552 ± 0.024 | 1.93 ± 0.036 | 1.83 ± 0.034 | 0.414 ± 0.021 |
| AGAAAA | 0.559 ± 0.023 | 1.89 ± 0.023 | 1.78 ± 0.048 | 0.133 ± 0.027 |
| AGAAAC | 0.541 ± 0.013 | 1.93 ± 0.055 | 1.796 ± 0.01 | 0.58 ± 0.023 |
| CCUAUA | 0.827 ± 0.019 | 1.945 ± 0.016 | 1.83 ± 0.029 | 0.508 ± 0.074 |
| CCUAAA | 0.725 ± 0.1 | 1.95 ± 0.035 | 1.84 ± 0.019 | 0.615 ± 0.021 |
| GCUCUG | 0.3 ± 0.0076 | 1.89 ± 0.045 | 1.32 ± 0.05 | 0.685 ± 0.024 |
